The target in one data set is T1, AmMIXTA (Antirrhinum majus, UniProt Q38739 1-321).
T1 sequence: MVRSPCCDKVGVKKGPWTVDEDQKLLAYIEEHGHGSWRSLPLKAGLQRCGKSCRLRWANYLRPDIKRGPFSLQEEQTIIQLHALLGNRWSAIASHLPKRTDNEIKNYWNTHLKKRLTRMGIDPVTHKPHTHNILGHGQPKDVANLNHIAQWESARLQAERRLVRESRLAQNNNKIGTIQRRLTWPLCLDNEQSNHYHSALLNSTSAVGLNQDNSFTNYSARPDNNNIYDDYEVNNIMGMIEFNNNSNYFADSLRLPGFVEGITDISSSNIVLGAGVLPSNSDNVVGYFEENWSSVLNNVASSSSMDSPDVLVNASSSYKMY
Briefly: EMSA. On the technique in general: In EMSA bound probe runs differently from free probe, usually more slowly.

A further data set addresses T2, NtZFP8 (Nicotiana tabacum, UniProt A0A1S4DEM8 1-256).
T2 sequence: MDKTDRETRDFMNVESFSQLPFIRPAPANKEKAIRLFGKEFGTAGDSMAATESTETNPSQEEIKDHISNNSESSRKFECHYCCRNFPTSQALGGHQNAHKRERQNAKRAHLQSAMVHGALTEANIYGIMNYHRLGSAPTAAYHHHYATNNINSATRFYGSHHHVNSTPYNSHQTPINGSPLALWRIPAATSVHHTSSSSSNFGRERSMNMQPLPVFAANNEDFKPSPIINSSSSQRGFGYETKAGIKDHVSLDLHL
The data set is described as follows: EMSA.

Experimental findings from publication PMC12528321 are described below.

B1: MIXTA_EMSA_Probe (dsDNA)
DNA 1: AGACGGATCCATTGCAATAGGTGGTGGTGGATCCTGTAGGAATTCGGA
DNA 2: TCCGAATTCCTACAGGATCCACCACCACCTATTGCAATGGATCCGTCT
For B1, the binding result with AmMIXTA is “binds”.

B2: ZFP8_EMSA_Probe (dsDNA)
DNA 1: AGACGGATCCATTGCAATAAGAAGAAGAAGATCCTGTAGGAATTCGGA
DNA 2: TCCGAATTCCTACAGGATCTTCTTCTTCTTATTGCAATGGATCCGTCT
For B2, the binding result with NtZFP8 is given as “binds”.
